According to paper PMC4356366, “Structures of the human Pals1 PDZ domain with and without ligand suggest gated access of Crb to the PDZ peptide-binding groove” (Acta Crystallographica Section D: Biological Crystallography, 2015):
Several values for one entry are separate records, joined by “and”; a condition that tells them apart may be missing. Equal values may be shown once. Entries after “also recorded” stand apart in the source; their conditions may differ. Ends that are not written are not given here.

B1: fluorescein-labelled human Crb1 peptide, residues 1390-1406 (Crb^17) (peptide)
peptide: RVEMWNLMPPPAMERLI
modifications: also: fluorescein label, position not given here
notes: also called fluorescein-labelled Crb^17; Crumbs peptide (homologue 1)

Assays:
[1] = molecular target: T1, human Pals1 PDZ domain (Pals1^PDZ; residues 251–335) (Homo sapiens, UniProt Q8N3R9); experiment: Fluorescence polarization binding assay, fluorescein-labelled Crb peptides with Pals1^PDZ; details: Fp, fluorescein-labelled peptide 50 nM, protein 0 to 300 µM, 20 mM HEPES pH 7.5, 100 mM NaCl, 1 mM DTT, read after 5 min; measured in parallel from the same Pals1 preparation; representative of three independent experiments
T1 construct: the PDZ domain of human Pals1 (Pals1^PDZ; residues 251–335); GST (N, cleaved yes); made in house; host or cells: Escherichia coli FB810
T1 sequence (Q8N3R9 251-335): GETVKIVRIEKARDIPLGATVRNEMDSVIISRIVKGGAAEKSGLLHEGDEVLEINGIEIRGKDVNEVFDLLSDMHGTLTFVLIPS
Description: Fluorescence polarization (Fp) assays were performed to determine the K d for each peptide following a previously described protocol (Guettler et al., 2008[▶]). Binding assays were performed in 20 mM HEPES pH 7.5, 100 mM NaCl, 1 mM DTT. The reaction mixtures contained a fixed concentration of fluorescein-labelled peptide (50 nM) and a protein concentration ranging from 0 to 300 µM depending on the dissociation constant. The 20 µl reactions were carried out in a 384-well plate and measured after 5 min using a Tecan Safire2 plate reader with excitation at 470 nm and emission at 525 nm. The anisotropy values were normalized and the K d values were determined using nonlinear regression with the graphics program Prism (Heyduk & Lee, 1990[▶]).
To characterize the interaction between the PDZ domain of human Pals1 (Pals1^PDZ; residues 251–335) and the intracellular segment of human Crb1 in vitro, we used fluorescence polarization (Fp) assays with a fluorescein-labelled peptide containing 17 carboxy-terminal residues 1390–1406 (defined hereafter as Crb^17). […] The Pals1^PDZ–Crb^17 interaction was stable to size-exclusion chromatography as detected from the Crb^17 intrinsic tryptophan fluorescence (data not shown). […]

[2] = molecular target: T2, human Pals1 PDZ domain (Pals1^PDZ; residues 251-335), wild type (human, UniProt Q8N3R9 251-335); experiment: FP
T2 chain: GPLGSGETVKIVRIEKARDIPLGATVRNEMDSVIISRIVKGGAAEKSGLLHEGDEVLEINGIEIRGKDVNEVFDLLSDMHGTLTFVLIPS

[3] = molecular target: T3, human Pals1 PDZ domain (Pals1^PDZ; residues 251-335), wild type (human, UniProt Q8N3R9 251-335); experiment: fluorescence polarisation; fixed fluorescein-labelled peptide (50 nM), Pals1 PDZ protein titrated 0 to 300 µM; 20 mM HEPES pH 7.5, 100 mM NaCl, 1 mM DTT; 20 µl in 384-well plate, read after 5 min; details: both partners purified
T3 construct: vector-derived residues Gly-Pro-Leu-Gly-Ser at the amino-terminus of Pals1^PDZ, left after removal of GST; Pals1 (MPP5), human, PDZ domain, residues 251-335; also called MPP5; protein associated with Lin-7; source: E. coli FB810, purified (glutathione Sepharose 4B, GST removed with GST-3C protease, Superdex S75)
T3 sequence: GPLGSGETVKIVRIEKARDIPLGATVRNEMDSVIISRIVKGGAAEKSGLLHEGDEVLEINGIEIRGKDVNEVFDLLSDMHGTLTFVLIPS

[4] = molecular target: T4, human Pals1 PDZ domain F318A mutant (human, UniProt Q8N3R9 251-335, F318A); experiment: FP
T4 sequence: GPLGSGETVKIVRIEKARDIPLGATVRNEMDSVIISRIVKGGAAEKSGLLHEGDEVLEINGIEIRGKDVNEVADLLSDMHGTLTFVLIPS

[5] = molecular target: T5, human Pals1 PDZ domain F318C mutant (human, UniProt Q8N3R9 251-335, F318C); experiment: fluorescence polarisation; fixed fluorescein-labelled peptide (50 nM), Pals1 PDZ protein titrated 0 to 300 µM; 20 mM HEPES pH 7.5, 100 mM NaCl, 1 mM DTT; 20 µl in 384-well plate, read after 5 min; details: both partners purified
T5 construct: Pals1 (MPP5), human, PDZ domain, residues 251-335, F318C; The methods name only the wild type and F318A; also called Pals1^PDZ F318C
T5 sequence (looked up): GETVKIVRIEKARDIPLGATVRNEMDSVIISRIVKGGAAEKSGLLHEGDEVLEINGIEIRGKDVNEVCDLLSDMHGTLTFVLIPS

[6] = molecular target: B1; experiment: as above; details: both partners purified
[7] = molecular target: Individual Crb^17 substitutions E1403A, R1404A and L1405A; experiment: as above

Molecule | Kd [2] [µM] | binding result [3] | further results
Crb^17 I1406A: Crb^17 peptide with carboxy-terminal Ile1406 replaced by alanine, fluorescein-labelled (RVEMWNLMPPPAMERLA; also: fluorescein label, position not given here) | – | – | dissociation constant (Kd) for Pals1^PDZ [1]: completely abolished detectable binding; also recorded: Not detectable
RVEMWNLMPPPAMERAI (also: fluorescein label, position not given here) [fluorescein-labelled Crb^17 L1405A] | 55.3 | binds | –
AMERLI (also: fluorescein label, position not given here) [fluorescein-labelled shorter Crb1 peptide spanning residues 1401-1406 (Crb^6)] | 16.8 | binds | –
RVEMWNLMPPPAAERLI (also: fluorescein label, position not given here) [fluorescein-labelled Crb^17 M1402A] | 8.1 | binds | –
B1 | – | – | Kd [4]: 1.8 µM; Kd [3]: 9.2 µM and 12.4 µM; Kd [5]: 5 µM
human Pals1 PDZ domain F318A mutant (domain or fragment, vector-derived residues Gly-Pro-Leu-Gly-Ser at the amino-terminus of Pals1^PDZ, left after removal of GST (told for the wild type, same preparation); Pals1 (MPP5), human, PDZ domain, residues 251-335, F318A; also called Pals1^PDZ F318A; source: E. coli FB810, purified (glutathione Sepharose 4B, GST removed with GST-3C protease, Superdex S75)) GPLGSGETVKIVRIEKARDIPLGATVRNEMDSVIISRIVKGGAAEKSGLLHEGDEVLEINGIEIRGKDVNEVADLLSDMHGTLTFVLIPS | – | – | fold tighter binding than wild-type Pals1^PDZ [6]: 5 fold
RVEMWNLMPPPAMEALI (also: fluorescein label, position not given here) [fluorescein-labelled Crb^17 R1404A] | 51.5 | binds | –
human Pals1 PDZ domain (Pals1^PDZ; residues 251-335), wild type (domain or fragment) GPLGSGETVKIVRIEKARDIPLGATVRNEMDSVIISRIVKGGAAEKSGLLHEGDEVLEINGIEIRGKDVNEVFDLLSDMHGTLTFVLIPS | – | – | Kd [7]: 52 to 55 µM
RVEMWNLMPPPAMARLI (also: fluorescein label, position not given here) [fluorescein-labelled Crb^17 E1403A] | 53.1 | binds | –
